Source: the supplement of paper PMC9112550, “Optimization of the antimicrobial peptide Bac7 by deep mutational scanning” (BMC Biology, 2022)

System: Escherichia coli TOP10
Assay: shrunken log2 fold change of peptide-encoding DNA abundance (4.5 h post-induction vs induction); higher = less antimicrobial activity (less host growth inhibition)
Details: time post-induction: 4.5 h; library: site-saturation at positions 5, 18, 19, 20
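Note: peptides expressed intracellularly from a pBAD plasmid library in pooled LB shake-flask culture, induced with 0.3% L-arabinose, DNA abundance read by NGS, three biological replicates, DESeq2 with apeglm shrinkage.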

| Sequence | shrunken log2 fold change |
| --- | --- |
| RRIRRRPPRLPRPRPRPCTFPRP | -0.262 |
| RRIRLRPPRLPRPRPRPSTGPRP | -0.221 |
| RRIRNRPPRLPRPRPRPIPDPRP | -0.0956 |
| RRIRKRPPRLPRPRPRPGHQPRP | -0.0847 |
| RRIRERPPRLPRPRPRPLQLPRP | -0.33 |
| RRIRWRPPRLPRPRPRPVQHPRP | 0.136 |
| RRIRNRPPRLPRPRPRPKWPPRP | 0.208 |
| RRIRNRPPRLPRPRPRPAKPPRP | -0.00229 |
| RRIRERPPRLPRPRPRPYFCPRP | -0.765 |
| RRIRDRPPRLPRPRPRPLNDPRP | -0.172 |
| RRIRNRPPRLPRPRPRPIIFPRP | -1.03 |
| RRIRFRPPRLPRPRPRPICLPRP | -0.548 |
| RRIRARPPRLPRPRPRPRVDPRP | 0.419 |
| RRIRVRPPRLPRPRPRPAGRPRP | 1.22 |
| RRIRLRPPRLPRPRPRPEFLPRP | -0.108 |
| RRIRVRPPRLPRPRPRPKDKPRP | -0.13 |
| RRIRNRPPRLPRPRPRPHMLPRP | -0.954 |
| RRIRVRPPRLPRPRPRPWLPPRP | -0.59 |
| RRIRPRPPRLPRPRPRPAERPRP | 0.291 |
| RRIRYRPPRLPRPRPRPPLNPRP | -0.228 |
| RRIRARPPRLPRPRPRPPVKPRP | 0.404 |
| RRIRSRPPRLPRPRPRPELLPRP | -0.111 |
| RRIRERPPRLPRPRPRPGATPRP | 0.148 |
| RRIRHRPPRLPRPRPRPVTFPRP | 0.00537 |
| RRIRARPPRLPRPRPRPCQWPRP | -0.0491 |

| Sequence | shrunken log2 fold change |
| --- | --- |
| RRIRSRPPRLPRPRPRPLPSPRP | 0.255 |
| RRIRGRPPRLPRPRPRPPDVPRP | 0.0671 |
| RRIRKRPPRLPRPRPRPASYPRP | -0.0778 |
| RRIRERPPRLPRPRPRPGVKPRP | -0.0766 |
| RRIRPRPPRLPRPRPRPHCKPRP | -0.633 |
| RRIRWRPPRLPRPRPRPAAVPRP | 0.806 |
| RRIRQRPPRLPRPRPRPMLKPRP | -0.106 |
| RRIRLRPPRLPRPRPRPFRIPRP | 0.0742 |
| RRIRTRPPRLPRPRPRPMVEPRP | 0.0887 |
| RRIRWRPPRLPRPRPRPRHTPRP | -0.0876 |
| RRIRFRPPRLPRPRPRPYHAPRP | -0.0961 |
| RRIRYRPPRLPRPRPRPVRIPRP | -0.053 |
| RRIRSRPPRLPRPRPRPSEYPRP | -0.306 |
| RRIRARPPRLPRPRPRPVAEPRP | 0.871 |
| RRIRQRPPRLPRPRPRPSCQPRP | -0.834 |
| RRIRHRPPRLPRPRPRPIRCPRP | -0.115 |
| RRIRRRPPRLPRPRPRPQTYPRP | -0.0324 |
| RRIRWRPPRLPRPRPRPSPSPRP | 0.375 |
| RRIRIRPPRLPRPRPRPWQTPRP | 0.0238 |
| RRIRLRPPRLPRPRPRPMHHPRP | 0.0581 |
| RRIRVRPPRLPRPRPRPNVLPRP | 0.0178 |
| RRIRIRPPRLPRPRPRPWYHPRP | -0.351 |
| RRIRNRPPRLPRPRPRPNTEPRP | -0.206 |
| RRIRRRPPRLPRPRPRPDQVPRP | 0.0594 |
| RRIRWRPPRLPRPRPRPQLWPRP | 1.02 |

| Sequence | shrunken log2 fold change |
| --- | --- |
| RRIRPRPPRLPRPRPRPGYNPRP | -0.552 |
| RRIRNRPPRLPRPRPRPMLLPRP | -0.0366 |
| RRIRMRPPRLPRPRPRPRHEPRP | 0.532 |
| RRIRFRPPRLPRPRPRPYVDPRP | -0.00112 |
| RRIRLRPPRLPRPRPRPTGAPRP | -0.211 |
| RRIRIRPPRLPRPRPRPNKCPRP | -0.438 |
| RRIRARPPRLPRPRPRPMASPRP | 0.543 |
| RRIRPRPPRLPRPRPRPDKHPRP | -0.376 |
| RRIRRRPPRLPRPRPRPCNPPRP | -0.466 |
| RRIRWRPPRLPRPRPRPWRDPRP | 0.433 |
| RRIRSRPPRLPRPRPRPDPTPRP | 0.035 |
| RRIRNRPPRLPRPRPRPIKAPRP | -0.0167 |
| RRIRGRPPRLPRPRPRPKLYPRP | 0.354 |
| RRIRIRPPRLPRPRPRPLRHPRP | -0.172 |
| RRIRWRPPRLPRPRPRPETKPRP | 0.285 |
| RRIRTRPPRLPRPRPRPDGLPRP | 0.0665 |
| RRIRIRPPRLPRPRPRPYPRPRP | -0.311 |
| RRIRRRPPRLPRPRPRPHIEPRP | -0.00196 |
| RRIRRRPPRLPRPRPRPEWQPRP | 0.0758 |
| RRIRDRPPRLPRPRPRPRWVPRP | 0.263 |
| RRIRPRPPRLPRPRPRPNAKPRP | -0.0129 |
| RRIRNRPPRLPRPRPRPTNMPRP | -0.753 |
| RRIRPRPPRLPRPRPRPVDCPRP | 0.00936 |
| RRIRFRPPRLPRPRPRPYYHPRP | -0.146 |
| RRIRGRPPRLPRPRPRPEATPRP | 2.21 |

| Sequence | shrunken log2 fold change |
| --- | --- |
| RRIRTRPPRLPRPRPRPKDAPRP | 0.103 |
| RRIRRRPPRLPRPRPRPNEVPRP | -0.0332 |
| RRIRLRPPRLPRPRPRPWFQPRP | -0.0555 |
| RRIRSRPPRLPRPRPRPNPNPRP | -0.283 |
| RRIRFRPPRLPRPRPRPHQWPRP | -0.0612 |
| RRIRFRPPRLPRPRPRPYLQPRP | -0.527 |
| RRIRGRPPRLPRPRPRPVATPRP | 2.32 |
| RRIRSRPPRLPRPRPRPICIPRP | -0.494 |
| RRIRFRPPRLPRPRPRPSQKPRP | -0.0426 |
| RRIRRRPPRLPRPRPRPRSQPRP | 0.533 |
| RRIRQRPPRLPRPRPRPCGLPRP | 0.131 |
| RRIRKRPPRLPRPRPRPVNAPRP | 0.025 |
| RRIRTRPPRLPRPRPRPLQQPRP | -0.0185 |
| RRIRYRPPRLPRPRPRPLSFPRP | -1.04 |
| RRIRERPPRLPRPRPRPPSKPRP | -0.197 |
| RRIRCRPPRLPRPRPRPYNWPRP | -0.917 |
| RRIRYRPPRLPRPRPRPRVYPRP | -0.847 |
| RRIRARPPRLPRPRPRPMYAPRP | 0.207 |
| RRIRTRPPRLPRPRPRPHVMPRP | -0.0914 |
| RRIRMRPPRLPRPRPRPPNDPRP | 0.574 |
| RRIRRRPPRLPRPRPRPLCTPRP | 0.354 |
| RRIRIRPPRLPRPRPRPYLDPRP | -1.02 |
| RRIRRRPPRLPRPRPRPDRKPRP | -0.145 |
| RRIRLRPPRLPRPRPRPWFWPRP | -0.0455 |
| RRIRNRPPRLPRPRPRPAGCPRP | 0.00181 |

| Sequence | shrunken log2 fold change |
| --- | --- |
| RRIRNRPPRLPRPRPRPHFTPRP | -0.0512 |
| RRIRERPPRLPRPRPRPPSWPRP | -0.2 |
| RRIRFRPPRLPRPRPRPWRDPRP | -0.136 |
| RRIRERPPRLPRPRPRPNTIPRP | -0.45 |
| RRIRRRPPRLPRPRPRPHFLPRP | -0.196 |
| RRIRMRPPRLPRPRPRPKLRPRP | -0.0111 |
| RRIRTRPPRLPRPRPRPTGRPRP | 0.099 |
| RRIRLRPPRLPRPRPRPYSLPRP | -0.0459 |
| RRIRPRPPRLPRPRPRPKTCPRP | -0.124 |
| RRIRSRPPRLPRPRPRPDFLPRP | -0.0689 |
| RRIRVRPPRLPRPRPRPCFVPRP | -0.253 |
| RRIRTRPPRLPRPRPRPSRPPRP | 0.202 |
| RRIRNRPPRLPRPRPRPDEPPRP | -0.061 |
| RRIRIRPPRLPRPRPRPENKPRP | -0.663 |
| RRIRARPPRLPRPRPRPPNIPRP | 0.0251 |
| RRIRNRPPRLPRPRPRPATQPRP | -0.0108 |
| RRIRKRPPRLPRPRPRPFFTPRP | 0.19 |
| RRIRVRPPRLPRPRPRPTHRPRP | 0.662 |
| RRIRCRPPRLPRPRPRPQWGPRP | 0.502 |
| RRIRERPPRLPRPRPRPDMDPRP | 0.0527 |
| RRIRVRPPRLPRPRPRPIPQPRP | 0.485 |
| RRIRERPPRLPRPRPRPDSHPRP | -0.6 |
| RRIRLRPPRLPRPRPRPLNFPRP | -0.268 |
| RRIRRRPPRLPRPRPRPSLTPRP | -0.0192 |
| RRIRARPPRLPRPRPRPTDQPRP | 0.918 |

| Sequence | shrunken log2 fold change |
| --- | --- |
| RRIRERPPRLPRPRPRPPPQPRP | 0.553 |
| RRIRARPPRLPRPRPRPAVEPRP | 0.666 |
| RRIRWRPPRLPRPRPRPACWPRP | 0.517 |
| RRIRTRPPRLPRPRPRPECCPRP | 0.348 |
| RRIRSRPPRLPRPRPRPPMFPRP | 0.0179 |
| RRIRDRPPRLPRPRPRPITMPRP | 0.111 |
| RRIRCRPPRLPRPRPRPFCDPRP | -0.501 |
| RRIRLRPPRLPRPRPRPECVPRP | 0.148 |
| RRIRCRPPRLPRPRPRPGMIPRP | -0.0447 |
| RRIRCRPPRLPRPRPRPDSRPRP | 0.0735 |
| RRIRQRPPRLPRPRPRPAWAPRP | 0.263 |
| RRIRPRPPRLPRPRPRPWTIPRP | -0.117 |
| RRIRTRPPRLPRPRPRPAAGPRP | 0.375 |
| RRIRCRPPRLPRPRPRPCDSPRP | -0.042 |
| RRIRFRPPRLPRPRPRPGQRPRP | 0.686 |
| RRIRERPPRLPRPRPRPTLGPRP | 0.0905 |
| RRIRHRPPRLPRPRPRPWVIPRP | 0.00302 |
| RRIRHRPPRLPRPRPRPYQIPRP | -0.484 |
| RRIRLRPPRLPRPRPRPHIHPRP | -0.29 |
| RRIRRRPPRLPRPRPRPINPPRP | 0.00585 |
| RRIRTRPPRLPRPRPRPWDTPRP | -0.15 |
| RRIRDRPPRLPRPRPRPLWQPRP | 0.316 |
| RRIRLRPPRLPRPRPRPIWLPRP | 0.132 |
| RRIRWRPPRLPRPRPRPQASPRP | -0.11 |
| RRIRARPPRLPRPRPRPGFSPRP | 0.329 |
